# Source: the DeepSol protein solubility set
# Assay: soluble on expression in E. coli; label from the status in PepcDB or PDB records
row,Sequence,soluble on expression in E. coli
1,MAKKVLIISSSPRKGGNSDMLCDEFMKGVLETGNEVEKIFLKEKVIHPCTGCSVCSMYGKPCPQKDDAAGIVEKMIAADVIVMATPVYFYTMCGQMKIMIDRCCARYTEITNKEFYFIIAAAENDKGMMERTIDGFRGFLDCLENPQEKGVIYGIGAWKVGEIKDTPYMQEAYEMGKMV,not soluble
2,MGSDKIHHHHHHMPSRRGFLAGLLASSVTPTATWADVGAPAYLSAGKDALGLFVMAGLSAAGEVLFRHPLPDRGHAASAHPTRPEAVAFARRPGRFADVIDCRSGAQLARLEPPEGHHFYGHGVFSPEGEVLYTTENDYARGAGVIGVWNAGDYHRIGQFSSGGIGPHEMLLRRDAPGLVVANGGIETHPESGRAKLNIPFMRPNLSYLRLSGEIQHQMELPADLHKNSIRHIAVRSDGAVGFAMQWQGDLGADVPIVGLHQPGSAPRLMAEDDPRLRNLNGYGGSIAFSGDETAIAVTSPRGGVVQVMDCTSGALQAEHALSDVCGLAPLKDGFLVSTGTGIMAQIGTEVTTLTQAPLAWDNHLIALSSAASAPRQP,not soluble
3,MSLRLSLLSSTSKYKVTVAEVQRRLSPPECLNASLLGGVLRRAKSKNGGRSLREKLDKIGLNLPAGRRKAAHVTLLTSLVEGEAVHLARDFAYVCEAEFPSKPVAEYLTRPHLGGRNEMAARKNMLLAAQQLCKEFTELLSQDRTPHGTSRLAPVLETNIQNCLSHFSLITHGFGSQAICAAVSALQNYIKEALIVIDKSYMNPGDQSPADSNKTLEKMEKHREGHHHHHH,not soluble
4,MDRIRNDGVFYEIAYAESLMPATRKNTLFNGRVLIRSLKSKNIIFSSGAETMLDLRSPVDVMNMSLLWGVANNEARKMISGFPKNLLLQAECRGTGNGDVCSMKLSDAEKLAGNGEEEEQDGASEEKVVVGKEEEAEKVKAPPIEVRMNHSQYQALLQATKNANDMMKKIKASKAASSS,not soluble
5,MFSVNNTHSSVSCSPSINSNSTSNEHYLRILTEWEKNSSPGEERGIAFNRLSQCFQNQEAVLNLSDLNLTSLPELPKHISALIVENNKLTSLPKLPAFLKELNADNNRLSVIPELPESLTTLSVRSNQLENLPVLPNHLTSLFVENNRLYNLPALPEKLKFLHVYYNRLTTLPDLPDKLEILCAQRNNLVTFPQFSDRNNIRQKEYYFHFNQITTLPESFSQLDSSYRINISGNPLSTRVLQSLQRLTSSPDYHGPQIYFSMSDGQQNTLHRPLADAVTAWFPENKQSDVSQIWHAFEHEEHANTFSAFLDRLSDTVSARNTSGFREQVAAWLEKLSASAELRQQSFAVAADATESCEDRVALTWNNLRKTLLVHQASEGLFDNDTGALLSLGREMFRLEILEDIARDKVRTLHFVDEIEVYLAFQTMLAEKLQLSTAVKEMRFYGVSGVTANDLRTAEAMVRSREENEFTDWFSLWGPWHAVLKRTEADRWAQAEEQKYEMLENEYSQRVADRLKASGLSGDADAEREAGAQVMRETEQQIYRQLTDEVLALRLSENGSRLHHS,not soluble
6,MDLTQLEMFNAVAEAGSITQAAAKVHRVPSNLTTRLRQLETELGVDLFIRENQRLRLSPAGHNFLRYSQQILALVDEARSVVAGDEPQGLFSLGSLESTAAVRIPATLAEFNRRYPKIQFSLSTGPSGTMLDGVLEGKLNAAFIDGPINHTAIDGIPVYREELMIVTPQGYAPVTRASQVNGSNIYAFRANCSYRRHFESWFHADGAAPGTIHEMESYHGMLACVIAGAGIALIPRSMLESMPGHHQVEAWPLAEQWRWLTTWLVWRRGAKTRPLEAFIQLLDVPDSARQGYQ,soluble
7,MSIINDENGRGYKVHLCKTNIAQNNNKFYDMELLDEGGDFIVKLINGRIGYRGVTQLKDFDDLDRAKKFFESKFYEKTHLHWEERDDEPVPNKYAVVELATNARQTEKEVKKEEPEPEPKVDEKNTRGRKKRGIVKEKKEIKKEEEPVEEVNEKLKELMKCICDEDVHLGLLKQLKFNEAFGRPIDCLSLAQLTTGYEILSKIEESIGGKSARRSTRGRPRVADRVLAVKSDGPSLHDINKYYSLIPHSFGFCVPPKIDSHAKIQAERELLDALKGSIEASLELKDLKKTASSKDIYQRLYERLPCHLEPVSEEIAGKIGDCLAMRGPTHCYKLSLIDAFELKDPNEIPTEAPVEVQEVPKKRGRKSTKTAAPTVPPPTTKRLLWHGTRVTNVFSILMNGLQFPVGDRCGLMFGNGVYFANVPTKSANYCCPEASKRVFMLLCEVETANPLVLYESEIDADEKMEKAKKTSVYAAGKHTPRDTVEINGIPAFKSNLETIEEETRLLYDEYVMFNKEHFKIKYVVEVKVDRLTAKEMMA,not soluble
8,MNNENERFEGFFSRVVEQVRTLVLVPICQENKSENASPVCSVSSRVQEVLGLAQAIRLEVVYYETVNINIPRPATLFGTGKVKALTHYISEYDIELVIVDHFLTPVQQRNLEKLWNCKVIDRTALILEIFGDRARTKEGVLQVELAHLSYQKSRLVRSWTHLERQRGGHGFLGGPGETQIEADRRLLQEKIIRIRRELEKVIKTRALHRAKRKKTSHPIVALVGYTNTGKSTLFNRLSGANVLAKDMLFATLDPTLRKVVLPHGKTILLSDTVGFISHLPTHLIAAFRATLEEVVEADLILHVRDMSDLDHRAHGQDVLEVLADLGIDIDDTEHIIEVWNKIDILDEHALNVLQTSARTRLNPAVMVSALMSDGLDQLLTAIEKRVFGEMQSIECLLRPHEMSLISWFYENSGEIMQEGHNDGSVTIRAMLTSEAKKRLDHIKQTMN,not soluble
9,MARPQSKKKQTQIVRRSRPRGRLVPPGRLIAGRDFPEFLQQAVLLSGSLRQAARKLRVSYSTLRGWLGRRCEEPPEAERDLLAEHAAAIRAELDAASEHLATVRGQLDVLEHGE,not soluble
10,MAEETPPIVELAEWFQTPPGQYVLAWEQAQFDEAVADIFGYYAWQVGLAEPNLLRANRMPFKAWVGAGVPPPELAQGWQACVAAAPEALPFESQSVDLLVLPHAFECAEAPHLVLREVERVLVPEGRVVISGFNPWSLWGARNLMPGMEAWLPLPLSAQVALPRLKDWFKLLSFEVERGRFGCYAPACRTDKWLRRWRFMERYGQRWWGLGGAVYVVTATKKVAAMRLIGPAWKTRRKRAQAASVVVNRQADDPGRLEHHHHHH,not soluble
11,MGSDKIHHHHHHMMRVEHLAYQFSRNGQPFFKDVSFQLKSPGVNFLIGQNGAGKTTLADIITGLRPAQGELDLPKAAIYLNQQLPLLSSIRVRDVAQLVLGIEHGRLRLTTEQLQQLIDTQAYQFLAPLWDQHYGQLSGGQRKLVQLLLFLQVDRELIVLDEPTAAVDRENVQLLFQVMQAHPERTYLMITHDVRDLHAFTDYQVLWLNDRQVTTLSKRTFEAASAQADFVALFKTQ,not soluble
12,MGSDKIHHHHHHMTNTETIQSLIDSGEGYNVEFKVRVPSKVRELTEEICAFANADGGYLLIGVDDNGQIIGTGLENDKRSAIQGSISEISPALHCDMYAVNIEDKTVWVIDVPSGKDKPYIFSGSIFVREGANSQKLRTVEEMRSFFQECNKIFFDAIPCSWFNIYTDADEQAIKDFRTEAKLSPSTANKQIFENLELFTDNGVAKNGTAMFFGKQPERKFPHAVTRCVLFKGTTKVYIIDDKTFGGPLYQQYLQAMAWLESKLQVAYKIEGAGPREEIWEIPLTVFKEAIINALSHRDYYEQGATITIEMFDDRVEVSNPGGLLPIVAKDFGHKSMTRNPLIFGLFTRMHLVERVASGIPRMQEAMKEANLPEPDFHTDGMFTVIFKRGISIKNDTVNDTVNDTVNDTVNSKEKEVLKIIQKYPGLNSSKIAELIKKSIPTAKRHLNSLVKSGLIEFRGAQKTGGYYIINQQ,not soluble
13,GIDTVGGKMTVCQLYDKKNSQRKNIKRATEKGRQYLMNALKNDPLGMRAIDTVKQSDAKEWAIRMSEKGYAYKTIDNYKRSLKASFYMAIQDDCIRKNPFDFKLSDVLEDDTEQKVILTPEQEERLLAFMEKDKIYSKYYDEVVLLLETGLRISEFCGLTMHIDMQNRILNIDHQLLKDSEIGYYIETPKTKNGKRELPLTERAYQAIQRILKSRGKAQPLIVGGYSNFLFLNREGLPKVAGNYEGMVRGLIKKYNKYHTDKLPNITPHSFRHTYCTNMANRGMNPNTLQYLMGHANITMTLGYYAHGTFQSAKAELERLAC,not soluble
14,MNYLQYYPTDVINGEGTRCTLFVSGCTHACKGCYNQKSWSFSAGVLFDDVMEQQIINDLKDTRIKRQGLTLSGGDPLHPLNVETLLPFVQRVKRECPDKDIWVWTGYKLDELDKQQRAMLPYIDVLIDGKFIQEQADPSLVWRGSANQIIHRFKLLEHHHHHH,soluble
15,MSYLIRVQIPDEPGSLGRVAEAVGLIGGNISSVDVVEAFSNGTVTDDMVVELPAGTMADELITAAHEVEGVEVDSIRPFSGRVDRRGQ,soluble
16,MGSDKIHHHHHHMKDLSSIVAKFNTQGTITEIKPLGAGLINDTYKVNTQEADAPDYVLQRINHAIFQNVEMLQSNIAAVTGHIRKKLTEAGEADIDRKVLSFLATEEGKTYWFDGESYWRVMVFIPRAKTYETVNPEYSNYAGEAFGNFQAMLADIPETLGETIPDFHNMEFRLKQLRDAVAANAAGRVAEVQYYLDEIEKRADEMCKAERLFREGKLPKRVCHCDTKVNNMMFDEDGKVLCVIDLDTVMPSFIFSDYGDFLRTGANTGDEDDKDLNRVNFNMEIFKAFTKGYLKGAKSFLTPIEIENLPYAAALFPYMQCVRFLADYINGDTYYKIKYPEHNLVRTKAQFKLLQSVEEHTPEMVAFINECLVNG,not soluble
17,MSLIHAGSMIDGVAKKIKTKQTIVIEDGVIIDVKSGYTKAKPNDIVIDLKNTTVTPGWMDLHVHLGSQSSPQSYSEDFYLNPEDFAYRSVPWIEKTLLAGFTTVRDVGGEVVLAARNAVNNGYINGPRIFSAGRSIGTTGGHADPSSGLNRKFRGDPGPHDAVVNGVDDAMKAVRQRYKDGSDLIKITATGGVLSVAKNGQNPQFTEEEIRAIVETAKDYEMHVAAHAHGVEGMQRAIRAGVRTIEHGTLMDRPTARLMKKYGTYYVPTVSAGEFVYEKAKEPGYFPEIVRPKALEIGPKIKKTLGMAYEEGVKIAFGTDMGVSPHGENADEFVYMVEAGMKPIDAIFAATSIAAEVLNQEDLGKIKKGMKADIVAVNGNPLKDIAVTKNVVFVMKDGVVYKQPINLKEGHHHHHH,soluble
18,MSLSARSSASSWSEEPVQSNMDISTGHMILSYMEDHLKNKNRLEKEWEALCAYQAEPNSSFVAQREENVPKNRSLAVLTYDHSRVLLKAENSHSHSDYINASPIMDHDPRNPAYIATQGPLPATVADFWQMVWESGCVVIVMLTPLAENGVRQCYHYWPDEGSNLYHIYEVNLVSEHIWCEDFLVRSFYLKNLQTNETRTVTQFHFLSWYDRGVPSSSRSLLDFRRKVNKCYRGRSCPIIVHCSDGAGRSGTYVLIDMVLNKMAKGAKEIDIAATLEHLRDQRPGMVQTKEQFEFALTAVAEEVNAILKALPQEGHHHHHH,soluble
19,MPTAIDLFAGLGGWSNGARRAGVKVLWAANHWPVAVGWHSANHPDAIHVCQDLHQADWSKVPAHGIMLASPCCQGHSKARGKKSGNAQHDSSRSTAWAVVSAAEYHSPEVVLVENVEEFTDWALYPAWSQAMAALGYMIAPHVVDCADLGVPQHRVRLFLVCTRSKAPLNLQLHQRQHVPASSFIDFDSGKWSPIVKPSRAESTLTRVKNGRQRFGERFIMPYYRSGSGLTGSCIERPIGTITKLDRWALVRGNEMRMLSADEGLAGMSFDADTKRPASHRLTMHMAGTSTNPVG,not soluble
20,MIEYSSFVLDNGLKVFVHEDRTTSMAALNILYDVGSKDEVVTKTGFAHLFEHLMFGGSKHIPSYDEALQKAGGENNAFTSPDITNYYITIPANNIETAFWLESDRMMALSFDPKVLEVQRSVVIEEFKQRYLNQPYGDVWLKLRPLAYKEHSYKWATIGKEISHIEEATMDDVRDFFYSYYLPNNAYMVVAGNVTLEQVKKLSEKWFAPIPSGTRRKRNIP,not soluble
